Consider one molecule from paper PMC10834429, “HRDE-2 drives small RNA specificity for the nuclear Argonaute protein HRDE-1” (Nature Communications, 2024).

Assay [1] addresses T1, GFP::3xFLAG::HRDE-1 (C. elegans, UniProt Q09249 1-1032).
T1 construct: HRDE-1/WAGO-9, germline nuclear Argonaute, C. elegans, tagged in the worm strain; Tag ends are read from the strain notation GFP::3xFLAG::HRDE-1; also called HRDE-1/WAGO-9; wild-type HRDE-1; source: C. elegans strain hrde-1(tor125[GFP::3xFLAG::hrde-1]), adult animals, in lysate; not shown: GFP, N-terminal, kept; 3xFLAG, N-terminal, kept
T1 sequence (looked up): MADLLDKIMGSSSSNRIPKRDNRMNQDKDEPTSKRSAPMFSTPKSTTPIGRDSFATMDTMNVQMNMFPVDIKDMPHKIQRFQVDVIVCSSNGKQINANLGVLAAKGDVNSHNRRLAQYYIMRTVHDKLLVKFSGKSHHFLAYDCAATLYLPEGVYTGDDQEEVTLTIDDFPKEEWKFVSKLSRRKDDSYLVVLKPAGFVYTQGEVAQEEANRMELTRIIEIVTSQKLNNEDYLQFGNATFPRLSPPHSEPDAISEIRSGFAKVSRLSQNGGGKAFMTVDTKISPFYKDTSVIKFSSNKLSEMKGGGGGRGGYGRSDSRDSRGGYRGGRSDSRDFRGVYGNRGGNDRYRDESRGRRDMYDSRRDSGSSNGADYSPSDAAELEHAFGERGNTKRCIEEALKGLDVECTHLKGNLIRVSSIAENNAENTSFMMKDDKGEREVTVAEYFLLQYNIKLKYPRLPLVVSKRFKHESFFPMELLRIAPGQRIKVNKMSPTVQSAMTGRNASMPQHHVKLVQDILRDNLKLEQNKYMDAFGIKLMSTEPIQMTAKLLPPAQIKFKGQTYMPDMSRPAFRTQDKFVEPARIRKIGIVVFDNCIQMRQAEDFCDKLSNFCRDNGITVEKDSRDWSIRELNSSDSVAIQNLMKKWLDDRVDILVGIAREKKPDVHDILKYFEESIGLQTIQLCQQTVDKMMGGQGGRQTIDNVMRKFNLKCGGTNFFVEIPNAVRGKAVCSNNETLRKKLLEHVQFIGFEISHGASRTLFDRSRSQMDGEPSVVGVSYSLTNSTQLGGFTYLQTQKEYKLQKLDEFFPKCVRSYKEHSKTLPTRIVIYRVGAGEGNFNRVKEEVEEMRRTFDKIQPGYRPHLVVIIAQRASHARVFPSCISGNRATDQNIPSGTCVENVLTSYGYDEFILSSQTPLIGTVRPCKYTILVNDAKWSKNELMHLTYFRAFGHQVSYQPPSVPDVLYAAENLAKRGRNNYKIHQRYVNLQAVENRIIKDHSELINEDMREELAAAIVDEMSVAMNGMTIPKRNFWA
Put plainly: co-IP; lysate of adult animals; anti-FLAG beads precipitate GFP::3xFLAG::HRDE-1, HRDE-2::2xTy1::GFP detected with anti-Ty1; wild-type, mut-2 mutant and hrde-1(HK-AA) backgrounds; band intensities by ImageJ normalized to HRDE-1 immunoprecipitated and to wild-type. The note with it: partners not purified.

Assay [2] concerns the target T2, GFP::3xFLAG::HRDE-1(HK-AA) (C. elegans, UniProt Q09249 1-1032, H664A | K668A).
T2 construct: Tag ends are read from the strain notation; Repair template is in Supplementary Data 3; source: C. elegans strain hrde-1(cmp309[HK-AA]) made in hrde-1(tor125[GFP::3xFLAG::hrde-1]), adult animals, in lysate; not shown: GFP, N-terminal, kept; 3xFLAG, N-terminal, kept
T2 sequence (looked up): T1 sequence (looked up) with H664A, K668A
Described as above. The conditions noted are these: partners not purified.

Changes are numbered by the printed parent chain.

B1: HRDE-2::2xTy1::GFP (natural protein, C. elegans, UniProt Q22058 1-305, looked up)
chain: MSQNSDTFDSGLQMEVHKMAEADNSSVQQKFDAIRDYIGRKETTIILCEHDDSRKIKLTLNKQRMESSMFLTEMPDGGIQEKTKFHRNGLAVCSYNAFDEVDLPLADSYIFYGLPSNVEAFPRMLHGIEKSAHKENKIVFIDIVVSILEKIQIKVVSFELYNRKCTVPTWVAELVITYCAPIEEQQQRIEEIRRTRASVPVAISDAANGSAEMVPSNTTGSSGSPMSTAPVPAAKKEKVQYESIRQIRPNAQGRYFVPARMINMDIEMSNDEYSPDESENDENEYDYENAARYDDGYDEGHEYCQ
notes: HRDE-2 (HRDE-2/ENRI-3), C. elegans, tagged in the worm strain; Tag ends are read from the strain notation HRDE-2::2xTy1::GFP; also called HRDE-2/ENRI-3; source: C. elegans strain hrde-2/enri-3(tag1660[hrde-2/enri-3::2xTy1::GFP]), adult animals, in lysate; not shown: 2xTy1, C-terminal, kept; GFP, C-terminal, kept
As for B1, in assay [1], the “fold change of co-precipitated HRDE-2 in the mut-2 mutant against wild-type” value is ~2.18 fold. For the same molecule, the “fold change of co-precipitated HRDE-2 against wild-type HRDE-1” value in assay [2] was ~3.3 fold.
